Where no end group is shown, it is not given here. [ ]: non-standard residue; d: D form. Aib = CC(C)(N)C(=O)O
target: human GLP-1 receptor (human, UniProt P43220); assay: cell-based or functional assay

Binder | CRE luciferase EC50, 0% HSA | CRE luciferase EC50, 1% HSA
H[Aib]EGTFTSDVSSYLEGEAVKKFIAWLVEK[Aib]KEFL-NH2 (N-terminus assumed; SMILES CC[C@H](C)[C@H](NC(=O)[C@H](Cc1ccccc1)NC(=O)[C@H](CCCCN)NC(=O)[C@H](CCCCN)NC(=O)[C@@H](NC(=O)[C@H](C)NC(=O)[C@H](CCC(=O)O)NC(=O)CNC(=O)[C@H](CCC(=O)O)NC(=O)[C@H](CC(C)C)NC(=O)[C@H](Cc1ccc(O)cc1)NC(=O)[C@H](CO)NC(=O)[C@H](CO)NC(=O)[C@@H](NC(=O)[C@H](CC(=O)O)NC(=O)[C@H](CO)NC(=O)[C@@H](NC(=O)[C@H](Cc1ccccc1)NC(=O)[C@@H](NC(=O)CNC(=O)[C@H](CCC(=O)O)NC(=O)C(C)(C)NC(=O)[C@@H](N)Cc1c[nH]cn1)[C@@H](C)O)[C@@H](C)O)C(C)C)C(C)C)C(=O)N[C@@H](C)C(=O)N[C@@H](Cc1c[nH]c2ccccc12)C(=O)N[C@@H](CC(C)C)C(=O)N[C@H](C(=O)N[C@@H](CCC(=O)O)C(=O)N[C@@H](CCCCN)C(=O)NC(C)(C)C(=O)N[C@@H](CCCCN)C(=O)N[C@@H](CCC(=O)O)C(=O)N[C@@H](Cc1ccccc1)C(=O)N[C@@H](CC(C)C)C(N)=O)C(C)C) [[Aib8,Glu23,Val25,Lys27,Glu34,Lys35,Aib36,Lys37]-GLP-1-(7-37)-peptidyl-Glu-Phe-Leu amide] | 0.325 nM | 0.097 nM
H[Aib]EGTFTSDVSSYLEGEAVKEFIWWLVEK[Aib]KEFL-NH2 (N-terminus assumed; SMILES CC[C@H](C)[C@H](NC(=O)[C@H](Cc1ccccc1)NC(=O)[C@H](CCC(=O)O)NC(=O)[C@H](CCCCN)NC(=O)[C@@H](NC(=O)[C@H](C)NC(=O)[C@H](CCC(=O)O)NC(=O)CNC(=O)[C@H](CCC(=O)O)NC(=O)[C@H](CC(C)C)NC(=O)[C@H](Cc1ccc(O)cc1)NC(=O)[C@H](CO)NC(=O)[C@H](CO)NC(=O)[C@@H](NC(=O)[C@H](CC(=O)O)NC(=O)[C@H](CO)NC(=O)[C@@H](NC(=O)[C@H](Cc1ccccc1)NC(=O)[C@@H](NC(=O)CNC(=O)[C@H](CCC(=O)O)NC(=O)C(C)(C)NC(=O)[C@@H](N)Cc1c[nH]cn1)[C@@H](C)O)[C@@H](C)O)C(C)C)C(C)C)C(=O)N[C@@H](Cc1c[nH]c2ccccc12)C(=O)N[C@@H](Cc1c[nH]c2ccccc12)C(=O)N[C@@H](CC(C)C)C(=O)N[C@H](C(=O)N[C@@H](CCC(=O)O)C(=O)N[C@@H](CCCCN)C(=O)NC(C)(C)C(=O)N[C@@H](CCCCN)C(=O)N[C@@H](CCC(=O)O)C(=O)N[C@@H](Cc1ccccc1)C(=O)N[C@@H](CC(C)C)C(N)=O)C(C)C) [[Aib8,Glu23,Val25,Trp30,Glu34,Lys35,Aib36,Lys37]-GLP-1-(7-37)-peptidyl-Glu-Phe-Leu amide] | 0.157 nM | 0.054 nM
HXEGTFTSDVSSYLEGQAAKEFIAWLVKKXKEFL (Aib at 8, 36; C-terminal amide) [[Aib8,Lys35,Aib36,Lys37]-GLP-1-(7-37)-peptidyl-Glu-Phe-Leu amide] | 0.256 nM | 0.084 nM
HXEGTFTSDVSSYLEGQAAKEFIAWLVKKXGEFL (Aib at 8, 36; C-terminal amide) [[Aib8,Lys35,Aib36]-GLP-1-(7-37)-peptidyl-Glu-Phe-Leu amide] | 0.045 nM | 0.015 nM
H[Aib]EGTFTSDVSSYLEGKRAREFIAWLVEK[Aib]KEFL-NH2 (N-terminus assumed; SMILES CC[C@H](C)[C@H](NC(=O)[C@H](Cc1ccccc1)NC(=O)[C@H](CCC(=O)O)NC(=O)[C@H](CCCNC(=N)N)NC(=O)[C@H](C)NC(=O)[C@H](CCCNC(=N)N)NC(=O)[C@H](CCCCN)NC(=O)CNC(=O)[C@H](CCC(=O)O)NC(=O)[C@H](CC(C)C)NC(=O)[C@H](Cc1ccc(O)cc1)NC(=O)[C@H](CO)NC(=O)[C@H](CO)NC(=O)[C@@H](NC(=O)[C@H](CC(=O)O)NC(=O)[C@H](CO)NC(=O)[C@@H](NC(=O)[C@H](Cc1ccccc1)NC(=O)[C@@H](NC(=O)CNC(=O)[C@H](CCC(=O)O)NC(=O)C(C)(C)NC(=O)[C@@H](N)Cc1c[nH]cn1)[C@@H](C)O)[C@@H](C)O)C(C)C)C(=O)N[C@@H](C)C(=O)N[C@@H](Cc1c[nH]c2ccccc12)C(=O)N[C@@H](CC(C)C)C(=O)N[C@H](C(=O)N[C@@H](CCC(=O)O)C(=O)N[C@@H](CCCCN)C(=O)NC(C)(C)C(=O)N[C@@H](CCCCN)C(=O)N[C@@H](CCC(=O)O)C(=O)N[C@@H](Cc1ccccc1)C(=O)N[C@@H](CC(C)C)C(N)=O)C(C)C) [[Aib8,Lys23,Arg24,Arg26,Glu34,Lys35,Aib36,Lys37]-GLP-1-(7-37)-peptidyl-Glu-Phe-Leu amide] | 0.383 nM | 0.138 nM
H[Aib]EGTFTSDVSSYLEGEKVKEFIEWLVEK[Aib]KEFL-NH2 (N-terminus assumed; SMILES CC[C@H](C)[C@H](NC(=O)[C@H](Cc1ccccc1)NC(=O)[C@H](CCC(=O)O)NC(=O)[C@H](CCCCN)NC(=O)[C@@H](NC(=O)[C@H](CCCCN)NC(=O)[C@H](CCC(=O)O)NC(=O)CNC(=O)[C@H](CCC(=O)O)NC(=O)[C@H](CC(C)C)NC(=O)[C@H](Cc1ccc(O)cc1)NC(=O)[C@H](CO)NC(=O)[C@H](CO)NC(=O)[C@@H](NC(=O)[C@H](CC(=O)O)NC(=O)[C@H](CO)NC(=O)[C@@H](NC(=O)[C@H](Cc1ccccc1)NC(=O)[C@@H](NC(=O)CNC(=O)[C@H](CCC(=O)O)NC(=O)C(C)(C)NC(=O)[C@@H](N)Cc1c[nH]cn1)[C@@H](C)O)[C@@H](C)O)C(C)C)C(C)C)C(=O)N[C@@H](CCC(=O)O)C(=O)N[C@@H](Cc1c[nH]c2ccccc12)C(=O)N[C@@H](CC(C)C)C(=O)N[C@H](C(=O)N[C@@H](CCC(=O)O)C(=O)N[C@@H](CCCCN)C(=O)NC(C)(C)C(=O)N[C@@H](CCCCN)C(=O)N[C@@H](CCC(=O)O)C(=O)N[C@@H](Cc1ccccc1)C(=O)N[C@@H](CC(C)C)C(N)=O)C(C)C) [[Aib8,Glu23,Lys24,Val25,Glu30,Glu34,Lys35,Aib36,Lys37]-GLP-1-(7-37)-peptidyl-Glu-Phe-Leu amide] | 0.716 nM | 0.164 nM
H[Aib]EGTFTSDLSKQMEGEAVREFIEWLKNK[Aib]LEFLELL-NH2 (N-terminus assumed; SMILES CC[C@H](C)[C@H](NC(=O)[C@H](Cc1ccccc1)NC(=O)[C@H](CCC(=O)O)NC(=O)[C@H](CCCNC(=N)N)NC(=O)[C@@H](NC(=O)[C@H](C)NC(=O)[C@H](CCC(=O)O)NC(=O)CNC(=O)[C@H](CCC(=O)O)NC(=O)[C@H](CCSC)NC(=O)[C@H](CCC(N)=O)NC(=O)[C@H](CCCCN)NC(=O)[C@H](CO)NC(=O)[C@H](CC(C)C)NC(=O)[C@H](CC(=O)O)NC(=O)[C@H](CO)NC(=O)[C@@H](NC(=O)[C@H](Cc1ccccc1)NC(=O)[C@@H](NC(=O)CNC(=O)[C@H](CCC(=O)O)NC(=O)C(C)(C)NC(=O)[C@@H](N)Cc1c[nH]cn1)[C@@H](C)O)[C@@H](C)O)C(C)C)C(=O)N[C@@H](CCC(=O)O)C(=O)N[C@@H](Cc1c[nH]c2ccccc12)C(=O)N[C@@H](CC(C)C)C(=O)N[C@@H](CCCCN)C(=O)N[C@@H](CC(N)=O)C(=O)N[C@@H](CCCCN)C(=O)NC(C)(C)C(=O)N[C@@H](CC(C)C)C(=O)N[C@@H](CCC(=O)O)C(=O)N[C@@H](Cc1ccccc1)C(=O)N[C@@H](CC(C)C)C(=O)N[C@@H](CCC(=O)O)C(=O)N[C@@H](CC(C)C)C(=O)N[C@@H](CC(C)C)C(N)=O) | 0.506 nM | 0.26 nM

Reference: patent US20150344540A1, “NOVEL GLP-1 RECEPTOR AGONISTS WITH CHOLESTEROL EFFLUX ACTIVITY” (NOVO NORDISK A/S, priority 2012, published 2015)
